14 molecules from patent US5807824A, “C5A receptor antagonists having substantially no agonist activity” (priority 1995, dated 1998) can be followed below.

Where a chain is given by its changes, count along the chain named. In names and notes the source's numbering stands. Where a SMILES comes first, the peptide text is derived from it. Some results are limits rather than exact numbers.

To fix the notation:
B1: C5a (1-68, T1M, C27S, K68C) (protein, UniProt P01031 678-745, looked up, variant T1M C27S K68C)
chain: MLQKKIEEIAAKYKHSVVKKCCYDGASVNNDETCEQRAARISLGPRCIKAFTECCVVASQLRANISHC
modifications: C5a anaphylatoxin
B2: C5a: human C5a, a 74-amino acid polypeptide; recombinant human C5a used as reference agonist (protein, UniProt P01031 678-751, looked up)
C5a anaphylatoxin: TLQKKIEEIAAKYKHSVVKKCCYDGACVNNDETCEQRAARISLGPRCIKAFTECCVVASQLRANISHKDMQLGR
modifications: C5a anaphylatoxin
B3: C5a (1-72, T1M, C27S, L72C) (protein, UniProt P01031 678-751, looked up, variant T1M C27S L72C)
C5a anaphylatoxin: B2 C5a anaphylatoxin with T1M, C27S, L72C
modifications: C5a anaphylatoxin truncated to residues 1-72
B4: C5a (1-73, T1M, C27S, G73C) (protein, UniProt P01031 678-751, looked up, variant T1M C27S G73C)
C5a anaphylatoxin: B2 C5a anaphylatoxin with T1M, C27S, G73C
modifications: C5a anaphylatoxin truncated to residues 1-73
notes: agonist, included for comparison
B5: C5a (1-70, T1M, C275, M7OC) (protein, UniProt P01031 678-747, looked up, variant T1M C27S M70C)
chain: MLQKKIEEIAAKYKHSVVKKCCYDGASVNNDETCEQRAARISLGPRCIKAFTECCVVASQLRANISHKDC
modifications: C5a anaphylatoxin
B6: C5a (1-71, T1M, C27S, H67F, Q71C) (protein, UniProt P01031 678-751, looked up, variant T1M C27S H67F Q71C)
C5a anaphylatoxin: B2 C5a anaphylatoxin with T1M, C27S, H67F, Q71C
modifications: C5a anaphylatoxin truncated to residues 1-71
B7: 8 Cys: cysteine-adduct of the C5a analogue No. 8 (protein, UniProt P01031 678-751, looked up, variant T1M C27S Q71C)
C5a anaphylatoxin: B2 C5a anaphylatoxin with T1M, C27S, Q71C
modifications: C5a anaphylatoxin cysteine adduct
B8: C5a (1-71, T1M, C275, Q71L) (protein, UniProt P01031 678-751, looked up, variant T1M C27S Q71L)
C5a anaphylatoxin: B2 C5a anaphylatoxin with T1M, C27S, Q71L
modifications: C5a anaphylatoxin
notes: as for B4
B9: C5a (1-71, T1M, C27S, Q71R) (protein, UniProt P01031 678-751, looked up, variant T1M C27S Q71R)
C5a anaphylatoxin: B2 C5a anaphylatoxin with T1M, C27S, Q71R
modifications: C5a anaphylatoxin truncated to residues 1-71
notes: as for B4
B10: C5a (1-71, T1M, C275, Q71D) (protein, UniProt P01031 678-751, looked up, variant T1M C27S Q71D)
C5a anaphylatoxin: B2 C5a anaphylatoxin with T1M, C27S, Q71D
modifications: C5a anaphylatoxin
notes: as for B4
B11: C5a (1-71, T1M, C275, Q71H) (protein, UniProt P01031 678-751, looked up, variant T1M C27S Q71H)
C5a anaphylatoxin: B2 C5a anaphylatoxin with T1M, C27S, Q71H
modifications: C5a anaphylatoxin
notes: as for B4
B12: C5a (1-71, T1M, C27S, Q71S) (protein, UniProt P01031 678-751, looked up, variant T1M C27S Q71S)
C5a anaphylatoxin: B2 C5a anaphylatoxin with T1M, C27S, Q71S
modifications: C5a anaphylatoxin
notes: as for B4
B13: C5a (1-71, T1M, C27S) (protein, UniProt P01031 678-751, looked up, variant T1M C27S)
C5a anaphylatoxin: B2 C5a anaphylatoxin with T1M, C27S
modifications: C5a anaphylatoxin
notes: as for B4

The first test deals with T1, C5a receptor (Homo sapiens, UniProt P21730).
T1 construct: Neutrophils were purified from human peripheral blood; endogenous in cells; host or cells: neutrophils from human peripheral blood
T1 sequence (P21730 1-350): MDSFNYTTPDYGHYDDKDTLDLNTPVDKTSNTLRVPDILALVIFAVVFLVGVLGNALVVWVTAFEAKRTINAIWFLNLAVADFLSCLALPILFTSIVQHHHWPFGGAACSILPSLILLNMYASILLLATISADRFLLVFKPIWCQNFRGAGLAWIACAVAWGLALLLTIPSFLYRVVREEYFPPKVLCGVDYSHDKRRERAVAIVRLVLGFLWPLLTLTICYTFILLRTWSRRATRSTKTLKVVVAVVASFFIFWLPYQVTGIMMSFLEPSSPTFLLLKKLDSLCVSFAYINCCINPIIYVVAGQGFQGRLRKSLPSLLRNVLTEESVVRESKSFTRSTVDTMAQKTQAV
The test is described as follows: C5a induced Ca++ rise assay in fura-2 loaded neutrophils. The format is cell-based. Particulars: Table 6, Example 10 comparison with decapeptide. From the text:
The antagonism of the instant C5a analogues may be quantified as an IC50 in the calcium rise assay disclosed in Seligmann et al., Agents and Actions 21:375-378 (1987), described in detail in Example 7.
See Hugli et al., CRC Crit. Rev. Immunol. 1:321-326 (1981) and PCT WO 92/10205. A quantitative measure of this property may also be obtained using the calcium rise assay disclosed in Seligmann et al., supra, also described in Example 7. EC50 is a measure of agonistic activity.
Recombinant human C5a was dissolved in Hanks buffer containing 0.01% Tween-20, and all stock dilutions of C5a were made in this buffer. The acetoxymethyl ester of fura-2 (fura 2AM, Molecular Probes) was dissolved in DMSO. Neutrophils were purified from human peripheral blood by sedimentation in 6% hetastarch (HESPAN, DuPont, Waukegan, Ill., followed by counter flow elutriation as described in Chapman-Kirkland et al., J. Immunol. Meth. 142:95-104 (1991). Purified cells (2×10^6/ ml) were mixed with 0.2 uM fura- 2AM and incubated for 30 min at 37° C. in HEPES buffered Hanks solution without calcium or magnesium. Fifteen minutes before the assay, the cell suspension was transferred to a curvette containing a stir bar and calcium was added to 1 mM. The cell suspension was incubated with stirring at 37° C. Assays were terminated within 5 h of cell purification and a standard control response was obtained periodically to insure that the cell responses were not changing over the time of the experiment. The amount of fluorescence was determined using an SLM 8000 spectrofluorometer (SLM-Aminco Instruments, Urbana, Ill.). Curvettes were placed in the fluorometer and after obtaining a baseline for 10 sec, the C5a receptor antagonists to be tested for antagonistic properties were added and any change in fluoresence excitation ratio of 340 nm/380 nm (emission of 510 nm) was measured. Forty seconds after analogue addition, a challenge dose of C5a was added to a final concentration of 100 pM and the resulting change in excitation ratio was measured.
IC50 values were used as a measure of antagonist potency. These values are defined as the concentration of C5a analogue needed to reduce the calcium rise response of the 100 pM C5a challenge dose by 50%. EC50 values were used as a measure of agonist potency. […]
As a reminder, the IC50 is the midpoint of a concentration-inhibition curve. Read a high IC50 as lower potency. B1: it took 84 nM to reach half-maximal inhibition (IC50).

Broadly, the EC50 is the midpoint of the concentration-response curve. Read a high EC50 as a less potent agent. B2: the EC50 came to 0.07 nM.

B3: the IC50 is 621 nM.

Take B4: the concentration for a half-maximal effect (EC50) came to 0.6 nM.

For B5, the midpoint of inhibition, the IC50, lay at 859 nM.

The same test, now with this note: calcium rise assay.
B6: the “Concentration up to which tested with agonist activity not detected” value was more than 0.8 µM.

In the case of B3, the Concentration up to which tested with agonist activity not detected was more than 1.5 µM.

On to B5, for which the Concentration up to which tested with agonist activity not detected was more than 1 µM.

The same test, now with this note: stated in words.
With `CC[C@H](C)[C@H](N)C(=O)N[C@@H](CO)C(=O)N[C@@H](Cc1ccccc1)C(=O)N[C@@H](CCCCN)C(=O)N[C@@H](CC(=O)O)C(=O)N[C@@H](CCSC)C(=O)N[C@@H](CCC(N)=O)C(=O)N[C@@H](CC(C)C)C(=O)NCC(=O)N[C@@H](CCCNC(=N)N)C(=O)O` [Decapeptide, reference compound] (H-ISFKDMQLGR-OH), the “Agonist / antagonist character” value is reported as “significant agonist activity”.

The next test deals with T1, C5a receptor. The test is described as follows: Receptor binding assay: displacement of [125I]Bolton-Hunter labelled C5a from PMNL membranes. The note with it: Table 4; [125I]BH-C5a 4.0 pM, PMNL membranes, Cheng-Prusoff. As for the experimental part: C5a and C5a receptor antagonists were tested for their affinity for the C5a receptor. […] PMNLs were resuspended in Hanks balanced salt solution, without Ca^++ and Mg^++ and which contained 10 mM HEPES at pH 7.3, 2.5 mM MgCl2, 100 units/ml DNAse I, 0.1 mM PMSF, 10 μg/ml aprotonin and 10 μg/ml leupeptin. They were then equilibrated at 400 psi for 20 min at 4° C. in a nitrogen cavitation bomb. After evacuation into 3 volumes 0.5M KHCO3 containing 25 mM EDTA and the protease inhibitors listed above, the gelatinous material was removed with forceps and the mixture was centrifuged at 400×g for 10 min at 4° C. The resulting supernatant was centrifuged at 50,000×g for 60 min at 4° C. The pellets from the aliquots representing 200×10^6 cells were stored at -70° C. For binding studies, these membranes were resuspended at an equivalent of 20×10^6 cells/ml in 50 mM HEPES at pH 7.3, containing 1 mM CaCl2, 5 mM MgCl2, 0.1 mM PMSF, 0.1% bacitracin and 0.5% BSA.
Nonspecific binding was determined in the presence of 10 nM unlabelled C5a. The binding reaction was initiated by the addition of the PMNL membranes and was continued for 120 min at 4° C. Bound and free radioactivity were separated by vacuum filtration through GF/C glass fiber filters (Whatman), pretreated for 90 min with 0.05% PEI (polyethyleneimine) using a Cell Harvester (Brandel, Gaithersburg, Md.). Filters were washed with 3×5 ml of ice-cold 5 mM Tris buffer at pH 7.4 and counted in a multiwell Gamma counter (Genesys). Data were analyzed using the non-linear regression analysis program, RS/1 (Bolt, Beranek and Newman, Boston) and expressed as IC50 values. The results are set forth below in Table 4 as Ki values using the Cheng-Presoff equation. See Braunwalder et al., supra.
A general note: Displacement assays read how much labelled ligand stays bound in the presence of the test substance.
By Ki is commonly meant a measure of affinity in units of concentration, obtained from inhibition or displacement. A higher Ki goes with weaker binding. Molecule B7 came in with a Ki of 2.8 nM.

The molecule B8 had a Ki of 0.035 nM.

Turning to B9, the Ki worked out at 0.35 nM.

B10 returned a Ki of 8.5 nM.

Molecule B11 displayed a Ki of 0.15 nM.

The molecule B6 displayed a Ki of 0.1 nM.

In turn, B3 showed a Ki of 0.9 nM.

In the case of B12, the Ki came to 7.5 nM.

Regarding B13, the affinity, expressed as Ki, was 3 nM.

With B5, the Ki is 0.4 nM.

The test is the same for the next values; noted with them: Table 6, Example 10 comparison with decapeptide.
B1 displayed a Ki of 0.06 nM.

In the case of B3, the affinity corresponds to a Ki of 0.15 nM.

Take B4: the affinity, expressed as Ki, was 0.03 nM.

B5 showed a Ki of 0.35 nM.
